In patent US20240261333A1, “NOVEL TARGETS FOR ENHANCING ANTI-TUMOR IMMUNITY” (THE BROAD INSTITUTE, INC., priority 2021, published 2024):

Tests used:
TNKS1BP1 = TNKS1BP1 (UniProt Q9C0C2); assay: co-IP, IgG control, C-FLAG B3GNT2 cell lysate, mass spectrometry
RPL19 = RPL19 (UniProt P84098); assay: as above
TXN = TXN (UniProt P10599); assay: as above
ARG1 = ARG1 (UniProt P05089); assay: as above
SRSF1 = SRSF1 (UniProt Q07955); assay: as above
SRSF3 = SRSF3 (UniProt P84103); assay: as above
DNAJA2 = DNAJA2 (UniProt O60884); assay: as above
PSMA7 = PSMA7 (UniProt O14818); assay: as above
RPL37A = RPL37A (UniProt P61513); assay: as above
CDSN = CDSN (UniProt Q15517); assay: as above
LIMA1 = LIMA1 (UniProt Q9UHB6); assay: as above
DDX20 = DDX20 (UniProt Q9UHI6); assay: as above
DDX20, sequence (Q9UHI6 whole entry): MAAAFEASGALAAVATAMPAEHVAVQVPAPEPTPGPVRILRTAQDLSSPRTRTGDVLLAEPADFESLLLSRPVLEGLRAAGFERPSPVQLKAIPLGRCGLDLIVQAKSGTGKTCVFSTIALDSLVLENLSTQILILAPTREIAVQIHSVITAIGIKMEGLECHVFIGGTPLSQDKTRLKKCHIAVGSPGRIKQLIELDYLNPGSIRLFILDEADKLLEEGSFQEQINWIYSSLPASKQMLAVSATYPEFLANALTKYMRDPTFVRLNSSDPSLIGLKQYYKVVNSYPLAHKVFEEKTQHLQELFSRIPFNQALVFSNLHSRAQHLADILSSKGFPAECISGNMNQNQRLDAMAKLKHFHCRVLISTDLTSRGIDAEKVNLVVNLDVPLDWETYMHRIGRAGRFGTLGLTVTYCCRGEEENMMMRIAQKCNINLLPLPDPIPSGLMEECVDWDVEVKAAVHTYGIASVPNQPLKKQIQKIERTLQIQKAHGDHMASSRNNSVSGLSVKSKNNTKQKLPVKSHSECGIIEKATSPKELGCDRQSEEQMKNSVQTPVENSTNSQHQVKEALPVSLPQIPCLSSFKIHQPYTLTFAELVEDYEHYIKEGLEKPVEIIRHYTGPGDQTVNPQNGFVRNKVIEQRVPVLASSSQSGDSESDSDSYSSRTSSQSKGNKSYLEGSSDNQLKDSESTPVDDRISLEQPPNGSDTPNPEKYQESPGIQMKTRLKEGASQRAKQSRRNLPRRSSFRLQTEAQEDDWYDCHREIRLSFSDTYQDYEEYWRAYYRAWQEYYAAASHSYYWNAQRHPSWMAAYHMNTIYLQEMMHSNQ

HSPB1 = HSPB1 (UniProt P04792); assay: as above
HSPB1, sequence (P04792 whole entry): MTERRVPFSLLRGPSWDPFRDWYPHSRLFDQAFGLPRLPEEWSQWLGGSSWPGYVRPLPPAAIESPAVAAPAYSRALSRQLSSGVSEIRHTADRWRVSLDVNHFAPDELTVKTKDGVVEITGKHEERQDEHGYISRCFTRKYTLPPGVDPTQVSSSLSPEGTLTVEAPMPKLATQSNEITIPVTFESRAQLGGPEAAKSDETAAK

EIF4G1 = EIF4G1 (UniProt Q04637); assay: as above
RPL5 = RPL5 (UniProt P46777); assay: as above
ITGB3 = ITGB3 (UniProt P05106); assay: as above
ITGB3, sequence (P05106 27-788 limits assumed): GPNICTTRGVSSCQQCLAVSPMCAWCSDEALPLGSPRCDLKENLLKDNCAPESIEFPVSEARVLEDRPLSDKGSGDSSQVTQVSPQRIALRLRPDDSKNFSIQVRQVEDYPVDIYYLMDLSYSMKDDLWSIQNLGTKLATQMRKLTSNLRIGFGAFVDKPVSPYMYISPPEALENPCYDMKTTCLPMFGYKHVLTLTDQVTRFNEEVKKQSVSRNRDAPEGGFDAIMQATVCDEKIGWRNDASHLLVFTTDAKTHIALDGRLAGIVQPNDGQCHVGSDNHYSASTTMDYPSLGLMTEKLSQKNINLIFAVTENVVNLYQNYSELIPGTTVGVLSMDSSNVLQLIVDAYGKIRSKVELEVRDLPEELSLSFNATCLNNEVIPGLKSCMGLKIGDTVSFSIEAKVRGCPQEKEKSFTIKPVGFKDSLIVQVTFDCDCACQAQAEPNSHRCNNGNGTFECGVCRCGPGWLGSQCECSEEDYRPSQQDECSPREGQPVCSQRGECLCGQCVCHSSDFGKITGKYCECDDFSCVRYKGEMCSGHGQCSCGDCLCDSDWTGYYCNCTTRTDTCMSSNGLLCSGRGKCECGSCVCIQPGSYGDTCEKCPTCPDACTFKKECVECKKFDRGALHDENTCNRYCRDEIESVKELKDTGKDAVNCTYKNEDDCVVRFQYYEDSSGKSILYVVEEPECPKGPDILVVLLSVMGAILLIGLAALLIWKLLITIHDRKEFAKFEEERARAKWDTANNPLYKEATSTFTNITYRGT

PBXIP1 = PBXIP1 (UniProt Q96AQ6); assay: as above
RPS16 = RPS16 (UniProt P62249); assay: as above
RPS2 = RPS2 (UniProt P15880); assay: as above
SSRP1 = SSRP1 (UniProt Q08945); assay: as above
CFL1 = CFL1 (UniProt P23528); assay: as above
CFL1, sequence (P23528 2-166 limits assumed): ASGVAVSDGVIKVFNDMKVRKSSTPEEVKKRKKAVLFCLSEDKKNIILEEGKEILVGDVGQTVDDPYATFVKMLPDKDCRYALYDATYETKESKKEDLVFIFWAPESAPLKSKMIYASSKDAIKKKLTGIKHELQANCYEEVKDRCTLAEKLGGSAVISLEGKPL

TMEM59 = TMEM59 (UniProt Q9BXS4); assay: as above
TMEM59, sequence (Q9BXS4 36-323 limits assumed): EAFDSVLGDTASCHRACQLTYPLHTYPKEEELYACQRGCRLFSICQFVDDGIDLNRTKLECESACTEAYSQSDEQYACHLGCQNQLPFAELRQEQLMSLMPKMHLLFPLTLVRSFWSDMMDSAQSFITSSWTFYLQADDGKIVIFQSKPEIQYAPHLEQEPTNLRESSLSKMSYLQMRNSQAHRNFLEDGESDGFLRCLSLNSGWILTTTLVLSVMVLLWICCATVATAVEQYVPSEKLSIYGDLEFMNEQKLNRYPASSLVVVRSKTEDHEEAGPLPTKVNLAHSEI

RPS23 = RPS23 (UniProt P62266); assay: as above
HIST1H1E = HIST1H1E (UniProt P10412); assay: as above
POF1B = POF1B (UniProt Q8WVV4); assay: as above
POF1B, sequence (Q8WVV4 other isoform, or with tags, fused parts or gaps limits assumed): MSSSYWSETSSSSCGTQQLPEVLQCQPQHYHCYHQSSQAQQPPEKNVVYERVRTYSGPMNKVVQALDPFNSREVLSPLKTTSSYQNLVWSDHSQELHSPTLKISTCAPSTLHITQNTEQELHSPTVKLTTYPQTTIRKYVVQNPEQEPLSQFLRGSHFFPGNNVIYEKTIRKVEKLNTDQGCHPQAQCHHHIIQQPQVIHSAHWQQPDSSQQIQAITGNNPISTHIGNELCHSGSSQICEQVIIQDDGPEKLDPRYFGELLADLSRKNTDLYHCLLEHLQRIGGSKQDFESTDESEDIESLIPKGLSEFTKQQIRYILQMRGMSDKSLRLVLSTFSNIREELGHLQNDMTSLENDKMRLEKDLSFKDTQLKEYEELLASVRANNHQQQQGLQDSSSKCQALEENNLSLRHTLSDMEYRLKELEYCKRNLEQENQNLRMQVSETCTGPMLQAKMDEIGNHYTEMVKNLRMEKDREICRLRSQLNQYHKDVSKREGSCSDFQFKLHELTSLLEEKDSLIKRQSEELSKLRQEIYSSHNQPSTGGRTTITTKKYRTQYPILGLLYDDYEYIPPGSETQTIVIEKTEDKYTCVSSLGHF

DEFA3 = DEFA3 (UniProt P59666); assay: as above
DEFA3, sequence (P59666 65-94 limits assumed): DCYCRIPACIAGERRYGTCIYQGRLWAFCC

RPS8 = RPS8 (UniProt P62241); assay: as above
EMD = EMD (UniProt P50402); assay: as above
EMD, sequence (P50402 whole entry): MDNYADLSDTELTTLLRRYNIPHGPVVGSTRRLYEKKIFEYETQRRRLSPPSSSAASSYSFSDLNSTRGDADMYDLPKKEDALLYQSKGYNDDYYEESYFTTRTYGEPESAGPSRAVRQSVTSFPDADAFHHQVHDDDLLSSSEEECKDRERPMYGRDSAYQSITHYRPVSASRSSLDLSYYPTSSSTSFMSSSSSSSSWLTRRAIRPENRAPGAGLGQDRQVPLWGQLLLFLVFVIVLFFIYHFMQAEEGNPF

TAGLN = TAGLN (UniProt Q01995); assay: as above
TAGLN, sequence (Q01995 2-201 limits assumed): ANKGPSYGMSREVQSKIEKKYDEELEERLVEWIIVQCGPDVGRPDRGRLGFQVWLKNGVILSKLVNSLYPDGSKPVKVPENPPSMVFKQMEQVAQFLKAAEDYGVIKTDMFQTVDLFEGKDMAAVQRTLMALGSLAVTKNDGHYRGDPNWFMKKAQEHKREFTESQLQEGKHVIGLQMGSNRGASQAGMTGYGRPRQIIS

HNRNPU = HNRNPU (UniProt Q00839); assay: as above
HNRNPU, sequence (Q00839 2-825 limits assumed): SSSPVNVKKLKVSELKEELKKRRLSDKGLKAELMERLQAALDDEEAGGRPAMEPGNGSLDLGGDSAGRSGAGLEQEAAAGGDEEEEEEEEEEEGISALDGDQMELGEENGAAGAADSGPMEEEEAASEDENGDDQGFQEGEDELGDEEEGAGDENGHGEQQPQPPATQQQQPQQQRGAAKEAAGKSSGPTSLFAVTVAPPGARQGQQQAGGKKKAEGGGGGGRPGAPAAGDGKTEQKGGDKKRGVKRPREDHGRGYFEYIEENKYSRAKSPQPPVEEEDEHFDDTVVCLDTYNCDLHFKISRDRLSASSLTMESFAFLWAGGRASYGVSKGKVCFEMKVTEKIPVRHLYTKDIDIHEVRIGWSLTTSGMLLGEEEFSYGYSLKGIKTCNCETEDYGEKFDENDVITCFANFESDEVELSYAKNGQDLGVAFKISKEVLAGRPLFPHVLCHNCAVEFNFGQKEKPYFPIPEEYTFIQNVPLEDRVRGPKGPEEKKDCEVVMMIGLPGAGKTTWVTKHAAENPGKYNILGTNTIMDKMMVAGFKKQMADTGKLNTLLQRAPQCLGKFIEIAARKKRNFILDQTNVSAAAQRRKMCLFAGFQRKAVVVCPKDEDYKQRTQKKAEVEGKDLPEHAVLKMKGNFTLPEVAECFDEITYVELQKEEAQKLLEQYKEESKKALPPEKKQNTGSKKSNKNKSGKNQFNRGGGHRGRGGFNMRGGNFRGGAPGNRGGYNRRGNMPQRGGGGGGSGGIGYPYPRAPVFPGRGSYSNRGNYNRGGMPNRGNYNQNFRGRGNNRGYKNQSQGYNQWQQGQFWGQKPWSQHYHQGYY

RPS13 = RPS13 (UniProt P62277); assay: as above
RPS19 = RPS19 (UniProt P39019); assay: as above
MTDH = MTDH (UniProt Q86UE4); assay: as above
MTCH2 = MTCH2 (UniProt Q9Y6C9); assay: as above
NCCRP1 = NCCRP1 (UniProt Q6ZVX7); assay: as above
NCCRP1, sequence (Q6ZVX7 whole entry): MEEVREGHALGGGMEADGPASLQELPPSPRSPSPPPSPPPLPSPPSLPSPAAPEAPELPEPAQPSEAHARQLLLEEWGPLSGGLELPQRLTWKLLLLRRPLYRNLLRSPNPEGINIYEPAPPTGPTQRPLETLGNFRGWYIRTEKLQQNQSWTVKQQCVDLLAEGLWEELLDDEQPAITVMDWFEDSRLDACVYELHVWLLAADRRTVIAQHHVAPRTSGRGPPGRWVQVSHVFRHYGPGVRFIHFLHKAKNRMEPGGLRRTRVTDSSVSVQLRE

RPL22 = RPL22 (UniProt P35268); assay: as above
RPL3 = RPL3 (UniProt P39023); assay: as above
RPL27A = RPL27A (UniProt P46776); assay: as above
RPL35 = RPL35 (UniProt P42766); assay: as above
ANXA2 (human) = ANXA2 (human) (UniProt P07355); assay: IgG control IP from lysate of cells overexpressing N-FLAG B3GNT2, then mass spectrometry
ANXA2 (human), sequence (P07355 other isoform, or with tags, fused parts or gaps limits assumed): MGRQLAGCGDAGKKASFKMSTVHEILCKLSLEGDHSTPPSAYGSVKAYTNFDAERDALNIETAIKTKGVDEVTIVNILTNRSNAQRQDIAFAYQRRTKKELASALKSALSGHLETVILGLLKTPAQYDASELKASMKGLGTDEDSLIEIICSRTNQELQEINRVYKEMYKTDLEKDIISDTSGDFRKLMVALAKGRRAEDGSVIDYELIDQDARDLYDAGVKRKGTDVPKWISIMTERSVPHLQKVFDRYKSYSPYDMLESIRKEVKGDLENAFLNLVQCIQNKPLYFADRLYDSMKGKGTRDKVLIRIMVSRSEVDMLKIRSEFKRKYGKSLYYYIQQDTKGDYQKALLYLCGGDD

EIF3I (human) = EIF3I (human) (UniProt Q13347); assay: as above

TXN, sequence (P10599 2-105 limits assumed): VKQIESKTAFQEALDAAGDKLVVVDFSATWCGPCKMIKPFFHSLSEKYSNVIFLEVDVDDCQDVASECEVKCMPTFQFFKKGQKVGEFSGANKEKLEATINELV

Substance: IgG control (Millipore Sigma 12-371) (antibody)
- co-IP mass spectrometry count (TNKS1BP1): 2
- co-IP mass spectrometry count (RPL19): 2
- co-IP mass spectrometry count (TXN): 0
- co-IP mass spectrometry count (ARG1): 4
- co-IP mass spectrometry count (SRSF1): 3
- co-IP mass spectrometry count (SRSF3): 3
- co-IP mass spectrometry count (DNAJA2): 0
- co-IP mass spectrometry count (PSMA7): 0
- co-IP mass spectrometry count (RPL37A): 3
- co-IP mass spectrometry count (CDSN): 0
- co-IP mass spectrometry count (LIMA1): 0
- co-IP mass spectrometry count (DDX20): 0
- co-IP mass spectrometry count (HSPB1): 0
- co-IP mass spectrometry count (EIF4G1): 2
- co-IP mass spectrometry count (RPL5): 0
- co-IP mass spectrometry count (ITGB3): 0
- co-IP mass spectrometry count (PBXIP1): 0
- co-IP mass spectrometry count (RPS16): 8
- co-IP mass spectrometry count (RPS2): 12
- co-IP mass spectrometry count (SSRP1): 0
- co-IP mass spectrometry count (CFL1): 3
- co-IP mass spectrometry count (TMEM59): 0
- co-IP mass spectrometry count (RPS23): 9
- co-IP mass spectrometry count (HIST1H1E): 0
- co-IP mass spectrometry count (POF1B): 0
- co-IP mass spectrometry count (DEFA3): 5
- co-IP mass spectrometry count (RPS8): 6
- co-IP mass spectrometry count (EMD): 2
- co-IP mass spectrometry count (TAGLN): 0
- co-IP mass spectrometry count (HNRNPU): 0
- co-IP mass spectrometry count (RPS13): 2
- co-IP mass spectrometry count (RPS19): 3
- co-IP mass spectrometry count (MTDH): 0
- co-IP mass spectrometry count (MTCH2): 0
- co-IP mass spectrometry count (NCCRP1): 0
- co-IP mass spectrometry count (RPL22): 0
- co-IP mass spectrometry count (RPL3): 5
- co-IP mass spectrometry count (RPL27A): 0
- co-IP mass spectrometry count (RPL35): 0
- co-IP mass spectrometry count (N-term IgG) (ANXA2 (human)): 15
- co-IP mass spectrometry count (N-term IgG) (EIF3I (human)): 0
